The target of test [1] is T1, nSR100 (Mus musculus, UniProt Q8BKA3).
T1 construct: host or cells: mouse N2A cells
T1 sequence (Q8BKA3 1-608): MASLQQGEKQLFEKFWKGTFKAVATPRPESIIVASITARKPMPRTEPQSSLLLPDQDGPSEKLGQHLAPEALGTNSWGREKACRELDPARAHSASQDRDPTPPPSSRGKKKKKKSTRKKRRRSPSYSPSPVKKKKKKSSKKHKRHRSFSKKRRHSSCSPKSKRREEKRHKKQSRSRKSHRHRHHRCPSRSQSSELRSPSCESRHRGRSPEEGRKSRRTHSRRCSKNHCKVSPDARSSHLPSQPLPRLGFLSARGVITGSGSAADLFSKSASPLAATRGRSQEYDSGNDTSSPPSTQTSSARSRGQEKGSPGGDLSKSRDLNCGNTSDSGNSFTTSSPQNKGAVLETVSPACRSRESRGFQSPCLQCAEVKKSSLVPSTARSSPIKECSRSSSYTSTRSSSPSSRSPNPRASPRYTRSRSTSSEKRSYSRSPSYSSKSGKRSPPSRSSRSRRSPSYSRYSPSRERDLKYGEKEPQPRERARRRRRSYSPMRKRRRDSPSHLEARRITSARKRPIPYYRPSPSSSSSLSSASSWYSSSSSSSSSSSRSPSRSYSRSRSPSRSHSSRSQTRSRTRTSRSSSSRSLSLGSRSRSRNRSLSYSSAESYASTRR
The experiment in a line: AP-MS nSR100 interaction partners from mouse N2A cells (Table 5). The class given is binding. The note with it: for Spectra (number of spectra for the prey in the purification of the bait): AP-MS.
Source text: By applying affinity purification coupled to mass-spectrometry (AP-MS), several interaction nSR100 partner proteins were detected that provide insight into mechanisms of post-translational regulation of nSR100 levels.

In test [2] the target is T1, nSR100. Kind of test: Regulation by nSR100: microexon inclusion level (PSI) by RNA-Seq in mouse N2A cells depleted of nSR100 (Table 2). The class given is cell-based. The note with it: YES/NO. An excerpt:
A-H) Percent of neural-regulated exons within each length class that is affected at 15<|ΔPSI|<25 and |ΔPSI|>25 by (A) RBFOX1 knockdown in human neural precursor cells; (B) MBNL1 and MBNL2 double knockdown in human HeLa cells; (C) ESRP1 knockdown in human PNT2 cells; (D) nSR100/Srrm4 knockdown in mouse N2A cells; (E) Ptbp1 knockdown in mouse N2A cells; (F) Ptbp2 knockout in mouse cortex (P1 stage); (G) Ptbp2 knockout in mouse embryonic brain (18.5 days post-conception); and (H) Rbfox1 knockout. p values correspond to two-sided proportion tests of regulated versus non-regulated events. I) Expression of nSR100 in different isolated brain cell types (Zhang et al., 2014). Error bars indicate SEM. […]
An RNA-Seq analysis pipeline was developed to detect and quantify all AS event classes involving all hypothetically possible splice junctions formed by the usage of annotated and unannotated splice sites, including those that demarcate microexons. […]
A multi-module analysis pipeline was developed that uses RNA-Seq, expressed sequence tag (EST) and cDNA data, as well as gene annotations and evolutionary conservation, to assemble libraries of exon-exon-junctions (EEJs) for subsequent read alignment to detect and quantify AS events in RNA-Seq data. […] Alt3 or Alt5 events were quantified based on the fraction of reads supporting the usage of each alternative splice site. […]

B1: Fip1l1 (protein, UniProt Q9D824 1-581, looked up)
Pre-mRNA 3'-end-processing …: MSAGEVERLVELSGGTGGDEEEEWLYGGPWDVHVHSDLAKDLDENEVERPEEENASANPPSGIEEEAAENGVAKPKVTETEDDSDSDSDDDEDDVHVTIGDIKTGAPQYGSYGTAPVNLNIKAGGRVYGNTGTKVKGVDLDAPGSINGVPLLEVDLDSFEDKPWRKPGADLSDYFNYGFNEDTWKAYCEKQKRIRMGLEVIPVTSTTNKITVQQGRTGNSEKEAALPSTKAEFTSPPSLFKTGLPPSRNSTSSQSQTSTASRKASSSVGKWQDRYGRAESPDLRRLPGAIDVIGQTITISRVEGRRRANENSNIQVLSDRSATEVDNNFSKPPPFFPPGAPPTHLPPPPFLPPPPTVSTAPPLIPPPGIPITVPPPGFPPPPGAPPPSLIPTIESGHSSGYDSRSARAFPYGNVAFPHLTSSAPSWPSLVDTTKQWDYYARREKDRDRDRERDRDRERERDRDRERERTRERERERDHSPTPSVFNSDEERYRYREYAERGYERHRASREKEERHRERRHREKEETRHKSSRSNSRRRHESEEGDSHRRHKHKKSKRSKEGKEAGSEPVPEQESTEAAPAE
For the molecule B1, in the test with nSR100 [1] (bait Srrm4), the “AvgP (average of the SAINT scores)” value stood at 1 and the “MaxP (maximal SAINT score)” value amounted to 1. The “FoldChange between the prey Avg spectra of the bait and control purifications” value with nSR100 [1] (bait Srrm4, 0.1 added to prevent division by 0) came to 90. In addition, the “AvgSpec (average number of spectra per replicate)” value in the test with nSR100 [1] (bait Srrm4, 2 replicates) is 9. Also, in the test with nSR100 [1] (bait Srrm4, biological replicate 1 (first number of the cell)), the “Spectra (number of spectra for the prey in the purification of the bait)” value was determined as 8. The “Spectra (number of spectra for the prey in the purification of the bait)” value in the test with nSR100 [1] (bait Srrm4, biological replicate 2 (second number of the cell)) turned out to be 10. In the test with nSR100 [1] (bait Srrm4, sum of spectra over 2 replicates), this molecule had a SpecSum of 18. In addition, the “Regulation by nSR100” value with nSR100 [2] is given as “NO (regulation may occur but does not meet a miminal threshold change of PSI≥10)”.

The values above are taken from patent publication US10772928B2, “Modulation and detection of a neuronal alternative splicing regulatory network for treatment and diagnosis of neurological disorders” (The Governing Council of the University of Toronto, priority 2014, dated 2020).
